The results in this text go back to article PMC4533229 (Journal of Structural Biology, 2015).

To fix the notation:
B1: mouse R-spondin 2 Furin tandem repeat fragment (mRspo2_(Fu1-Fu2), I39-G144) (domain or fragment)
chain: ETGICKGCLSCSKDNGCSRCQQKLFFFLRREGMRQYGECLHSCPSGYYGHRAPDMNRCARCRIENCDSCFSKDFCTKCKVGFYLHRGRCFDECPDGFAPLDETMECVEGT
notes: residues left by the vector after removal of the signal peptide; mouse R-spondin 2, Fu1-Fu2, I39-G144; printed ends ICKGCL...MECVEG; vector residue before the His10 tag; not shown: His10, C-terminal, kept
B2: human LGR5 ectodomain variant (hLGR5_(ecto)), R32-S543 with the loop A488-H537 replaced by an NGNNGD linker (domain or fragment)
chain: ETGRGCPTHCHCEPDGRMLLRVDCSDLGLSELPSNLSVFTSYLDLSMNNISQLLPNPLPSLRFLEELRLAGNALTYIPKGAFTGLYSLKVLMLQNNQLRHVPTEALQNLRSLQSLRLDANHISYVPPSCFSGLHSLRHLWLDDNALTEIPVQAFRSLSALQAMTLALNKIHHIPDYAFGNLSSLVVLHLHNNRIHSLGKKCFDGLHSLETLDLNYNNLDEFPTAIRTLSNLKELGFHSNNIRSIPEKAFVGNPSLITIHFYDNPIQFVGRSAFQHLPELRTLTLNGASQITEFPDLTGTANLESLTLTGAQISSLPQTVCNQLPNLQVLDLSYNLLEDLPSFSVCQKLQKIDLRHNEIYEIKVDTFQQLLSLRSLNLAWNKIAIIHPNAFSTLPSLIKLDLSSNLLSSFPITGLHGLTHLKLTGNHALQSLISSENFPELKVIEMPYAYQCCAFGVCENNGNNGDSVQCSPSGT
notes: residues left by the vector pHLsec after removal of the signal peptide; human LGR5 ectodomain, R32 up to the residue before the replaced loop A488-H537; printed ends RGCPTH...FGVCEN; linker that replaces A488-H537; human LGR5 after the replaced loop; vector residues before the His10 tag; Cloned into pHLsec H10; not shown: His10, C-terminal, kept

In data set [1] the target is B2. The data set is described as follows: crystal structure; hLGR5_(ecto)–mRspo2_(Fu1-Fu2) complex from coexpression, 5.9 mg/ml; sitting drop; 25% (w/v) PEG 3350, 200 mM lithium sulphate, 100 mM bis-Tris pH 5.5; 2.2 Å; two copies of the complex in the asymmetric unit. Conditions: both partners purified.
The target of data set [2] is B1. The description is as above. The note with it: both partners purified.
Data set [3] deals with the molecule itself. Described as above.
Data set [4] concerns the molecule itself. The data set is described as follows: crystal structure; approximately stoichiometric amounts of the hLGR5_(ecto)–mRspo2_(Fu1-Fu2) complex and mZNRF3_(ecto) mixed in 10 mM Tris/HCl pH 9.0, 1000 mM NaCl, 1.3 mg/ml; crystals in 100 mM ammonium acetate, 600 mM NaCl, 50 mM MES pH 6.0, 5 mM MgSO4; 4.8 Å, anisotropic; 2:2:2 complex generated by crystallographic symmetry.

The target of data set [5] is T1, hLGR5_(ecto)–mRspo2_(Fu1-Fu2) complex, formed beforehand by coexpression (human | mouse, UniProt O75473 32-487; Q8BFU0 39-144).
T1 construct: as the chain of m1: vector residues; as the chain of m1: human LGR5 ectodomain, R32 up to the residue before the replaced loop A488-H537; printed ends RGCPTH...FGVCEN; as the chain of m1: linker that replaces A488-H537; as the chain of m1: human LGR5 after the replaced loop; as the chain of m1: vector residues before the His10 tag; as the chain of m2: vector residues; as the chain of m2: mouse …
T1 chain 1: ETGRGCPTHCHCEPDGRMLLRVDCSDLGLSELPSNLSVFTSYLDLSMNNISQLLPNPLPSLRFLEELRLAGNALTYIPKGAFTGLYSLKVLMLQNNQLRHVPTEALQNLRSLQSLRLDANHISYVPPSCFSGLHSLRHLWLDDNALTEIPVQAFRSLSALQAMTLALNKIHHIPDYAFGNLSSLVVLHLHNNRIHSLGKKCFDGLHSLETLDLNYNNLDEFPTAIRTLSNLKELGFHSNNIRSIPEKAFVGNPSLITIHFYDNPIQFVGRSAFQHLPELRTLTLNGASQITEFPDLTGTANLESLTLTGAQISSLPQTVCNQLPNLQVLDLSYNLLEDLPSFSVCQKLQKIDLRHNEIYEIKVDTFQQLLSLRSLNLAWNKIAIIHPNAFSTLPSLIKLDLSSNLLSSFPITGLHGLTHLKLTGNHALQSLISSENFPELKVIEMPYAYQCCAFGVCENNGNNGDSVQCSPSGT
T1 chain 2: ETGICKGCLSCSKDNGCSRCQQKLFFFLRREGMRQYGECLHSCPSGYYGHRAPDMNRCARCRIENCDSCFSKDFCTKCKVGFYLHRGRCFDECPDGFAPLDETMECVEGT
The data set is described as above. The note with it: both partners purified.

For B1, in data set [1], the “stoichiometry N” value was found to be 1. In the case of B2, the binding result in data set [2] is “binds”. For the same molecule, the “stoichiometry N” value in data set [3] amounted to 2.

B3: mouse ZNRF3 ectodomain (mZNRF3_(ecto)) (domain or fragment, UniProt Q5SSZ7 53-216, looked up)
chain: KETAFVEVVLFESSPSGDYTTHTTGLTGRFSRAGAMLSAEGEIVQMHPLGLCNNNDEEDLYEYGWVGVVKLEQPELDPKPCLTVLGKAKRAVQRGATAVIFDVSENPEAIDQLNQGSEDPLKRPVVYVKGADAIKLMNIVNKQKVARARIQHLPPRQPTEYFDM
notes: mouse ZNRF3 ectodomain; chain C of PDB 4C99 was the search model; source: produced as described (Zebisch et al., 2013); large scale mammalian expression, purified
As for B3, the “stoichiometry N” value came to 2 in data set [4] and 1 in data set [5].

For orientation: stoichiometry N means a count of units in the complex or per binding partner.
